In article PMC9637899:
Substitutions are numbered along the chain they refer to. In names and notes the source's numbering stands.

T1: ElpQ_(181–343)
T1 chain: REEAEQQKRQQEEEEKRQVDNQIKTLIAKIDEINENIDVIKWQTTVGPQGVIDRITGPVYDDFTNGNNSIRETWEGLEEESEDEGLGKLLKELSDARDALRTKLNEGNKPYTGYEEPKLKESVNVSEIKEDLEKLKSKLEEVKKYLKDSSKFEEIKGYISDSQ

B1: activated C1s–CCP1–CCP2–SP, P09871 E326A; D358A; K575A; R576A; R581A; K583A (protein)
chain: EPTMYGEILSPNYPQAYPSEVEKSWDIEVPEGYGIHLYFTHLDIELSENCAYDSVQIISGDTEEGRLCGQRSSNNPHSPIVEEFQVPYNKLQVIFKSDFSNEERFTGFAAYYVATDINECTDFVDVPCSHFCNNFIGGYFCSCPPEYFLHDDMKNCGVNCSGDVFTALIGEIASPNYPKPYPENSRCEYQIRLEKGFQVVVTLRREDFDVEAADSAGNCLDSLVFVAGDRQFGPYCGHGFPGPLNIETKSNALDIIFQTDLTGQKKGWKLRYHGDPMPCPKEDTPNSVWEPAKAKYVFRDVVQITCLDGFAVVEGRVGATSFYSTCQSNGKWSNSKLKCQPVACGIPESIENGKVEDPESTLFGSVIRYTCEEPYYYMENGGGGEYHCAGNGSWVNEVLGPELPKCVPVCGVPREPFEEKQRIIGGSDADIKNFPWQVFFDNPWAGGALINEYWVLTAAHVVEGNREPTMYVGSTSVQTSRLAKSKMLTPEHVFIHPGWKLLEVPEGRTNFDNDIALVRLKDPVKMGPTVSPICLPGTSSDYNLMDGDLGLISGWGRTEAADRAVALAAARLPVAPLRKCKEVKVEKPTADAEAYVFTPNMICAGGEKGMDSCKGDSGGAFAVQDPNDKTKFYAAGLVSWGPQCGTYGLYTRVKNYVDWIMKTMQENSTPRED
B2: activated C1s–CCP1–CCP2–SP, P09871 K575A; R576A; R581A; K583A (protein)
chain: B1 chain with A311E, A343D

Biological target: T1, ElpQ_(181–343)
Experiment: SPR
Conditions: chain shown with the change; steady-state response at the highest analyte concentration plotted (about 5e-7 M on the x axis); ElpQ181-343 immobilized, C1s construct injected; parent: est. 140; read off a plot

| Binder | response |
| --- | --- |
| B1 | 0 RU |
| B2 | 8 RU |
